According to patent publication US5766897A, “Cysteine-pegylated proteins” (Incyte Pharmaceuticals, Inc., priority 1995, dated 1998):

How the values were obtained:
[1] = system: Cathepsin G; details: background statement; cited from earlier work
[2] = system: human neutrophil elastase; details: background statement; cited from earlier work
[3] = system: human neutrophil elastase; test: second-order association rate constant vs elastase; format: biochemical
Experimental: Refolded or soluble protein was tested for capacity to inhibit thrombin in a standard assay. Briefly, serial 2-fold dilutions of PN-1 variant were added to microtiter plate wells (50 μl/well), followed by 50 μl of a 30 μg/ml heparin solution, followed by 1 NIH unit of thrombin in 50 μl. These were allowed to incubate at 25° C. for 15 minutes. Residual thrombin activity was measured by the addition of 50 μl S-2238 (Kabi Pharmaceuticals) at 0.625 mg/ml. […]
The second-order rate association constants were determined for appropriate inhibitors-proteases combinations by combining equal-molar amounts of each protein (determined by titration as above) for various times from 1 second to 4 hours (as appropriate) and following the activity loss. […] Alternatively, the apparent first order rate constant was determined from the slope of a plot of log (normalized activity) vs time. The second order rate constant was calculated by dividing the apparent first order rate constant by the PN-1 (or variant) concentration used.

[4] = target: T1, Thrombin (Homo sapiens, UniProt P00734); details: background statement; cited from earlier work
[5] = system: E. coli; test: bactericidal effect of PN-1 added to E. coli; format: cell-based; details: native PN-1 added to E. coli
Experimental: Alternatively, PN-1 can be generated in a soluble form within E. coli by adjusting the fermentation conditions. This procedure provides a greater yield of soluble PN-1 as the fermentation temperature is decreased from 37° C. to 26° C. with a concomitant loss in inclusion body material. This is quite an unexpected finding, since PN-1 is bactericidal when native PN-1 is added to E. coli. To purify soluble PN-1, the cell supernatant from the disruption step was clarified by centrifugation and filtration or by treatment with polycations such as polyethyleneimine or Biacryl™ followed by centrifugation and filtration, and the soluble protein was purified as above. The generation of soluble material has many advantages: there is more certainty that the protein is correctly folded, there are no refolding steps, there is greater reproducibility from batch to batch.

[6] = target: T1, Thrombin; test: thrombin inhibition activity assay (D.4), specific activity; format: biochemical
Experimental: Refolded or soluble protein was tested for capacity to inhibit thrombin in a standard assay. Briefly, serial 2-fold dilutions of PN-1 variant were added to microtiter plate wells (50 μl/well), followed by 50 μl of a 30 μg/ml heparin solution, followed by 1 NIH unit of thrombin in 50 μl. These were allowed to incubate at 25° C. for 15 minutes. Residual thrombin activity was measured by the addition of 50 μl S-2238 (Kabi Pharmaceuticals) at 0.625 mg/ml. PN-1 variants were tested for their ability to inhibit urokinase using the substrate S-2444, plasmin using the substrate S-2390, tPA using the substrate S2288, Factor Xa using the substrate S-2222 or S-2765, kallikrein using the substrate S-2302, human neutrophil elastase using s-AAPV-pna (Sigma), cathepsin G using s-AAPF-pna (Sigma) in a similar manner, with or without the addition of heparin.
Each of the PN-1 site-directed mutant proteins, as well as wild type PN-1, were modified by cysteine-PEGylation using the protocol described in F.2. The activity of wild type PN-1, each of the PN-1 site-directed mutants, and the cysteine-PEGylated wild type and mutant proteins was determined using the assay described in D.4.

B1: PN-1 (protein, UniProt P07093 20-398, looked up)
Glia-derived nexin: SHFNPLSLEELGSNTGIQVFNQIVKSRPHDNIVISPHGIASVLGMLQLGADGRTKKQLAMVMRYGVNGVGKILKKINKAIVSKKNKDIVTVANAVFVKNASEIEVPFVTRNKDVFQCEVRNVNFEDPASACDSINAWVKNETRDMIDNLLSPDLIDGVLTRLVLVNAVYFKGLWKSRFQPENTKKRTFVAADGKSYQVPMLAQLSVFRCGSTSAPNDLWYNFIELPYHGESISMLIALPTESSTPLSAIIPHISTKTIDSWMSIMVPKRVQVILPKFTAVAQTDLKEPLKVLGITDMFDSSKANFAKITTGSENLHVSHILQKAKIEVSEDGTKASAATTAILIARSSPPWFIVDRPFLFFIRHNPTGAVLFMGQINKP
inhibition of cathepsin G [1]: does not inhibit | inhibition of elastase [2]: does not inhibit | inhibitory activity against elastase [3]: no inhibitory activity against elastase | acceleration of thrombin inhibition in the presence of heparin [4]: 50-100 fold | effect on E. coli [5]: bactericidal | ACTIVITY, AFTER PEG MODIFICATION ([6]; after cysteine-PEGylation with Maleimido-PEG): 0.017 NIH units of thrombin inhibited per μg PN1 (variant) | SPECIFIC ACTIVITY, BEFORE PEG MODIFICATION ([6]; before PEG modification): 0.50 NIH units of thrombin inhibited per μg PN1 (variant) | REL TO WT, BEFORE PEG MODIFICATION ([6]; before PEG modification, activity relative to wild type PN-1): 1 | REL TO ACTIVITY BEFORE PEG, AFTER PEG MODIFICATION ([6]; cysteine-PEGylated protein relative to same protein before PEGylation): 0.03
